Data set [1] addresses T1, RecU D88N D88N (Bacillus subtilis) (UniProt P39792).
T1 sequence: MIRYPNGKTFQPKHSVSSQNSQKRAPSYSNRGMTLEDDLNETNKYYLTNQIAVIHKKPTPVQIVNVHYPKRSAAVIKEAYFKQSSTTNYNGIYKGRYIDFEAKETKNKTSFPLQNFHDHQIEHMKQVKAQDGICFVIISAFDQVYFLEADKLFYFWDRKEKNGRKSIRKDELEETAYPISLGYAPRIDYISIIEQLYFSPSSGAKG
The data set is described as follows: thermofluor. Particulars: 1:1 molar ratio; Thermofluor: 100 mM MES pH 6.5, 5 ug RecU D88N per well, DNA 1:1 molar, Sypro orange, 25-100 C in 1 C steps; crystals: 0.1 M BICINE pH 9, 10% PEG 6000, 17 C …. In general terms: DSF heats the sample and reads unfolding from a dye or from intrinsic fluorescence.

Another data set deals with T2, RecU D88N (Bacillus subtilis, UniProt P39792 1-206, D88N).
T2 sequence: T1 sequence
The data set is described as follows: X-ray crystallography (3.2 A); 0.1 M BICINE pH 9, 10% PEG 6000; Thermofluor: 100 mM MES pH 6.5, 5 ug RecU D88N per well, DNA 1:1 molar, Sypro orange, 25-100 C in 1 C steps; crystals: 0.1 M BICINE pH 9, 10% PEG 6000, 17 C, protein:DNA 1:1.25. Particulars: protein: recombinant; chain copies: 2; blunt; self-complementary, 2 strand copies.

Data set [2] deals with the molecule itself. The data set is described as follows: crystal structure; RecU D88N mixed with 12 bp palindromic DNA at 1:1.25 molar ratio; crystals in 0.1 M BICINE pH 9, 10% PEG 6000, 17°C; 3.2 Å, space group R32, four RecU chains in the asymmetric unit.

Consider 5 molecules from PMC5314769, “Structural insights into dynamics of RecU–HJ complex formation elucidates key role of NTR and stalk region toward formation of reactive state” (Nucleic Acids Research, 2016).

Regarding HJ 11 bp, the binding signal in data set [1] is 8.2 delta Tm, C.

HJ 12 bp (HJ24?): the binding signal in data set [1] is 10.1 delta Tm, C.

Regarding HJ 10 bp, in data set [1], the binding signal is 6.7 delta Tm, C.

B1: 12 bp palindromic duplex (dsDNA)
DNA 1: ACGCAATTGCGT
DNA 2: ACGCAATTGCGT
B1: the binding result with RecU D88N is “binds”.

B2: RecU D88N, catalytically inactive mutant of the Holliday junction resolving enzyme RecU from Bacillus subtilis (enzyme, UniProt P39792 1-206, looked up)
chain: T1 sequence
notes: the N-terminal region (residues 1-33), the stalk (56-89) and the cap (34-55 and 90-199) are seen in the structure
With B2, in data set [2], the binding result is listed as “binds”.
